From article PMC3950713 come the findings set out here.

Assay in all cases: MST
Series [1] concerns the target T1, HpDprA(5-217)K137E (Helicobacter pylori 26695, UniProt O25100 5-217, K137E).
T1 sequence: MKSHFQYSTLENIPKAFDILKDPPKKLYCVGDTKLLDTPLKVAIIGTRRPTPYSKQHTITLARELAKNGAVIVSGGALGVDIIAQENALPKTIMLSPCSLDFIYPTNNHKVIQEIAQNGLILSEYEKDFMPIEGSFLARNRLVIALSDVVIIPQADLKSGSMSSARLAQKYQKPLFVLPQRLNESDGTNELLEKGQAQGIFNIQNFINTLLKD

The target in series [2] is T2, HpDprA(5-225) (Helicobacter pylori 26695, UniProt O25100 5-225).
T2 sequence: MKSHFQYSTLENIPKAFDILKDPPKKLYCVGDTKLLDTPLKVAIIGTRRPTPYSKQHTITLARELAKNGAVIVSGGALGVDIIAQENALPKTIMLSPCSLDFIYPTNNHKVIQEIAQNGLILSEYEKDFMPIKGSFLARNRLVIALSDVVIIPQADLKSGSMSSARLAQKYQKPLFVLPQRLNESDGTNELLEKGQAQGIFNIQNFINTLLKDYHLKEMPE

Series [3] deals with T3, HpDprA(5-217)WT (Helicobacter pylori 26695, UniProt O25100 5-217).
T3 sequence: T1 sequence with E133K

Series [4] concerns the target T4, HpDprA(5-217)F140E (Helicobacter pylori 26695, UniProt O25100 5-217, F140E).
T4 sequence: T1 sequence with E133K, F136E

Series [5] deals with T5, HpDprA(5-217)R52E (Helicobacter pylori 26695, UniProt O25100 5-217, R52E).
T5 sequence: T1 sequence with R48E, E133K

Series [6] addresses T6, HpDprA(5-217)R143E (Helicobacter pylori 26695, UniProt O25100 5-217, R143E).
T6 sequence: T1 sequence with E133K, R139E

Changes are numbered by the printed parent chain.

A word on the Kd: it is the concentration at which binding is half-saturated. Low values mean a tighter complex, high ones a looser complex. On to TTTTTTTTTTTTTTTTTTTTTTTTTTTTTTTTTTT (ssDNA) [dT35], for which the Kd in series [1] amounted to 7.22 ± 0.216 µM; in series [2] it was 0.0306 ± 0.000998 µM; in series [3] it was 0.0315 ± 0.000806 µM; in series [4], 0.556 ± 0.028 µM; in series [5], 9.95 ± 0.367 µM; in series [6] it was 5.47 ± 0.246 µM.
